We go through two molecules from PMC6155162, “Identification of mesothelioma-specific sialylated epitope recognized with monoclonal antibody SKM9-2 in a mucin-like membrane protein HEG1” (Scientific Reports, 2018).

Experiment [1] relates to SKM9-2. Briefly: Deglycosylation analysis: western blotting using SKM9-2 of neuraminidase-treated cell lysates. The note with it: full-length HEG1, lysates of ACC-MESO4 (native) or HEG1-transfected HEK293T, 6% SDS-PAGE. In kind it is binding. The source says:
Figure 8 SKM9-2 epitope produced from mesothelioma cells. (a) Chromatogram of SKMepmin3 separation using anion exchange column. SKMepmin3 produced from HEK293T (blue line) or ACC-MESO4 (pink line) was affinity-purified using SKM9-2-immobilized resins and separated by Mini Q 4.6/50 PE. A major peak of SKMepmin3 purified from HEK293T contained two disialyl T antigens (Fig. 6). (b) Western blotting for epitope-fused GPI-anchor protein (7.6231) treated with neuraminidases. Cell lysate of 7.6231-transfected ACC-MESO1 (top panel), ACC-MESO4 (middle panel), or HEK293T (lower panel) was treated with α2-3 Neuraminidase S or Neuraminidase A, resolved by 4–15% SDS-PAGE, and analyzed by western blotting using SKM9-2. (c) Western blotting for full-length HEG1 treated with neuraminidases. Cell lysates of ACC-MESO4 (upper panel) and HEG1-transfected HEK293T (lower panel) were treated with α2-3 Neuraminidase S or Neuraminidase A and analyzed by 6% SDS-PAGE and western blotting using SKM9-2. (d) Schematic of SKM9-2 epitope. Full-length blots are presented in Supplementary Fig. S10.
Monolayer cells were solubilized with 20 mM Tris buffer (pH 8.0) containing 1% SDS, 1 mM phenylmethylsulfonyl fluoride, 125 mU/mL Benzonase Nuclease (Merck Millipore Co., Tokyo, Japan) (25 µL/cm^2 culture surface area). The lysate (10 µL/lane) was resolved by SDS-PAGE under reducing conditions using 6% polyacrylamide gels or 4–15% precast gels (Bio-Rad Laboratories Inc., Hercules, CA, USA). Then it was transferred to a polyvinylidene difluoride membrane (Immobilon-P; Merck Millipore Co.) by semi-dry blotting in a buffer containing 25 mM Tris, 192 mM glycine, 0.1% SDS, and 20% methanol. The membrane was blocked with 5% non-fat milk in 20 mM Tris-buffered saline (pH 7.2) containing 0.1% Tween 20 and reacted with 1 µg/mL of mAb SKM9-2 or anti-FLAG (Anti-DYKDDDDK tag mAb; 1E6, Wako Pure Chemical Industries, Osaka, Japan). After washing, it was treated with horseradish peroxidase-conjugated goat anti-mouse IgG (Jackson ImmunoResearch, West Grove, PA, USA), and developed with Amersham ECL select (GE Healthcare, Buckinghamshire, UK). Although glycan in non-fat milk often interferes the glycan-dependent binding of an antibody, the SKM9-2 binding was not affected by the blocking using non-fat milk, in comparison with 5% bovine serum albumin (Supplementary Fig. S6).
Cell lysate or SKMepmin3 was treated with α2-3 Neuraminidase S, α2-3, 6, 8, 9 Neuraminidase A, and O-Glycosidase (New England Biolabs Japan, Tokyo, Japan) in 50 mM sodium phosphate (pH 7.5) containing 1% Nonidet P-40, according to the manufacturer’s instructions. The cell lysate sample was resolved by 4–15% or 6% SDS-PAGE under reducing conditions and detected by western blotting using SKM9-2. The analysis of the SKMepmin3 sample was performed by SPR.

Experiment [2] relates to SKM9-2. Briefly: Western blotting using SKM9-2 of HEG1 truncated mutants and epitope-fused GPI-anchor proteins. In kind it is binding. To be noted: cell lysates of transfected HEK293T, SDS-PAGE under reducing conditions, 1 µg/mL SKM9-2. The source says:
Figure 1 SKM9-2 binding to truncated mutants of HEG1. Schematics of full-length HEG1 (Full) and the truncated mutants are indicated on the left side and the results of western blotting using SKM9-2 are shown on the right side. Truncated amino acid position, which is based on a full-length variant of HEG1 containing exon 6, is shown as a number in the schematic of domain structure. The region of the SKM9-2 epitope is shown as a red square. […] SLURP GPI-anchor protein[18] was used as a fused GPI-anchor protein (violet square). The terminal sequences of the HEG1 peptide are shown in the western blot lane. The samples were resolved by 6% SDS-PAGE (a and b) or 4–15% SDS-PAGE (c) under reducing conditions and were detected by western blotting using SKM9-2. Cyt, cytoplasmic domain; EGFs, EGF related domains; Ser/Thr, serine/threonine rich region; SLURP, secreted lymphocyte antigen-6/urokinase-type plasminogen activator receptor-related peptide; SP, signal peptide; TM, transmembrane domain. Full-length blots are presented in Supplementary Fig. S7.
Figure 2 Epitope mapping of SKM9-2. Schematic of epitope peptides (left side) and western blots resolved by 4–15% SDS-PAGE (right side) are shown. The HEG1 peptide sequences are indicated in the western blot lane. Each epitope peptide was fused with a signal peptide (dashed line square) and a SLURP GPI-anchor protein (violet square). Full-length blots are presented in Supplementary Fig. S8.
Figure 3 Alanine scanning of SKM9-2 epitope. […] Cell lysates of transfected HEK293T (upper panel) or transfected ACC-MESO1 (lower panel) were resolved by 4–15% SDS-PAGE and analyzed by western blotting using SKM9-2. (b) S897A mutant of FLAG-tagged HEG1 in HEK293T was resolved by 4–15% SDS-PAGE and analyzed by western blotting using SKM9-2 (upper panel) or anti-FLAG mAb (lower panel). Native HEG1 in ACC-MESO4 and FLAG-tagged HEG1 without mutation in HEK293T were used as controls. Full-length blots are presented in Supplementary Fig. S9.
Sequences of tested HEG1 are shown in Supplementary Dataset. Full-length HEG1 cDNA was synthesized from total RNA purified with TRIzol reagent (Thermo Fisher Scientific) from ACC-MESO-4, using an oligo dT primer and SuperScript II RNase H reverse transcriptase (Thermo Fisher Scientific). cDNA encoding the HEG1 open reading frame was amplified by PCR using PrimeSTAR HS DNA Polymerase (Takara Bio Inc., Shiga, Japan). The HEG1 cDNA was cloned and inserted into the pcDNA3.1(−) mammalian expression vector (Thermo Fisher Scientific). For analyses of N-terminal truncation, we inserted mutants into pFLAG-CMV1 (Sigma-Aldrich Japan K.K., Tokyo, Japan). For analyses of C-terminal deletion lacking the transmembrane domain, we used mutants that were fused with a GPI-anchor protein, SLURP1-gpi[18], in pcDNA3.1(+) (Thermo Fisher Scientific) (Supplementary Dataset). Alanine substituted mutants were prepared using site directed mutagenesis. To produce a soluble epitope peptide, a modified HEG1 signal peptide and a C-terminal tag containing the FLAG tag plus a polyhistidine sequence were used in the mammalian expression vector pEF-BOS[39] (Supplementary Dataset). The plasmid constructs were transfected with Lipofectamine 3000 (Thermo Fisher Scientific). The HEG1 peptide-expressing 293 H clone was obtained by selection with geneticin (Thermo Fisher Scientific).
Monolayer cells were solubilized with 20 mM Tris buffer (pH 8.0) containing 1% SDS, 1 mM phenylmethylsulfonyl fluoride, 125 mU/mL Benzonase Nuclease (Merck Millipore Co., Tokyo, Japan) (25 µL/cm^2 culture surface area). The lysate (10 µL/lane) was resolved by SDS-PAGE under reducing conditions using 6% polyacrylamide gels or 4–15% precast gels (Bio-Rad Laboratories Inc., Hercules, CA, USA). […]
Background: Immunoblotting shows a protein as a band on a membrane.

B1: Native endogenous HEG1: native HEG1, 400 kDa mucin-like membrane protein, in ACC-MESO4 cells (protein, UniProt Q9ULI3 30-1381, looked up)
Protein HEG homolog 1: TRDPPPSPARRALSLAPLAGAGLELQLERRPEREPPPTPPRERRGPATPGPSYRAPEPGAATQRGPSGRAPRGGSADAAWKHWPESNTEAHVENITFYQNQEDFSTVSSKEGVMVQTSGKSHAASDAPENLTLLAETADARGRSGSSSRTNFTILPVGYSLEIATALTSQSGNLASESLHLPSSSSEFDERIAAFQTKSGTASEMGTERAMGLSEEWTVHSQEATTSAWSPSFLPALEMGELTTPSRKRNSSGPDLSWLHFYRTAASSPLLDLSSSSESTEKLNNSTGLQSSSVSQTKTMHVATVFTDGGPRTLRSLTVSLGPVSKTEGFPKDSRIATTSSSVLLSPSAVESRRNSRVTGNPGDEEFIEPSTENEFGLTSLRWQNDSPTFGEHQLASSSEVQNGSPMSQTETVSRSVAPMRGGEITAHWLLTNSTTSADVTGSSASYPEGVNASVLTQFSDSTVQSGGSHTALGDRSYSESSSTSSSESLNSSAPRGERSIAGISYGQVRGTAIEQRTSSDHTDHTYLSSTFTKGERALLSITDNSSSSDIVESSTSYIKISNSSHSEYSSFFHAQTERSNISSYDGEYAQPSTESPVLHTSNLPSYTPTINMPNTSVVLDTDAEFVSDSSSSSSSSSSSSSSGPPLPLPSVSQSHHLFSSILPSTRASVHLLKSTSDASTPWSSSPSPLPVSLTTSTSAPLSVSQTTLPQSSSTPVLPRARETPVTSFQTSTMTSFMTMLHSSQTADLKSQSTPHQEKVITESKSPSLVSLPTESTKAVTTNSPLPPSLTESSTEQTLPATSTNLAQMSPTFTTTILKTSQPLMTTPGTLSSTASLVTGPIAVQTTAGKQLSLTHPEILVPQISTEGGISTERNRVIVDATTGLIPLTSVPTSAKEMTTKLGVTAEYSPASRSLGTSPSPQTTVVSTAEDLAPKSATFAVQSSTQSPTTVSSSASVNSCAVNPCLHNGECVADNTSRGYHCRCPPSWQGDDCSVDVNECLSNPCPSTAMCNNTQGSFICKCPVGYQLEKGICNLVRTFVTEFKLKRTFLNTTVEKHSDLQEVENEITKTLNMCFSALPSYIRSTVHASRESNAVVISLQTTFSLASNVTLFDLADRMQKCVNSCKSSAEVCQLLGSQRRIFRAGSLCKRKSPECDKDTSICTDLDGVALCQCKSGYFQFNKMDHSCRACEDGYRLENETCMSCPFGLGGLNCGNPYQLITVVIAAAGGGLLLILGIALIVTCCRKNKNDISKLIFKSGDFQMSPYAEYPKNPRSQEWGREAIEMHENGSTKNLLQMTDVYYSPTSVRNPELERNGLYPAYTGLPGSRHSCIFPGQYNPSFISDESRRRDYF
On to B1, for which the “SKM9-2 binding (western blot)” value with SKM9-2 [1] (Neuraminidase A) is “lost”; in the experiment on SKM9-2 [1] (α2–3 Neuraminidase S), “weakened”.

B2: 1 kb: FLAG-tagged N-terminal deletion mutant hHEG1 (1086-1481) (protein)
chain: MSALLILALVGAAVADYKDDDDKLAAANSSIDLVNSCAVNPCLHNGECVADNTSRGYHCRCPPSWQGDDCSVDVNECLSNPCPSTAMCNNTQGSFICKCPVGYQLEKGICNLVRTFVTEFKLKRTFLNTTVEKHSDLQEVENEITKTLNMCFSALPSYIRSTVHASRESNAVVISLQTTFSLASNVTLFDLADRMQKCVNSCKSSAEVCQLLGSQRRIFRAGSLCKRKSPECDKDTSICTDLDGVALCQCKSGYFQFNKMDHSCRACEDGYRLENETCMSCPFGLGGLNCGNPYQLITVVIAAAGGGLLLILGIALIVTCCRKNKNDISKLIFKSGDFQMSPYAEYPKNPRSQEWGREAIEMHENGSTKNLLQMTDVYYSPTSVRNPELERNGLYPAYTGLPGSRHSCIFPGQYNPSFISDESRRRDYF
On to B2, for which, in the experiment with SKM9-2 [2], the “recognition by SKM9-2 upon western blot analysis” value is “not detected”.
